Laboratory results as given in paper PMC5171882, “Metagenomic mining for thermostable esterolytic enzymes uncovers a new family of bacterial esterases” (Scientific Reports, 2016).

Key:
Assay in all cases: purified protein
Assay type in all cases: biochemical, uncultured Acetothermia bacterium
Conditions in all cases: standard reaction: 25 mM Tris-HCl pH 8, 0.05% Triton X-100, 50 °C
purified protein [1] = substrate: CCCC(=O)Oc1ccc([N+](=O)[O-])cc1
purified protein [2] = substrate: CCCCCCCC(=O)Oc1ccc([N+](=O)[O-])cc1
purified protein [3] = substrate: CCCCCCCCCC(=O)Oc1ccc([N+](=O)[O-])cc1
purified protein [4] = substrate: CC(=O)Oc1ccc([N+](=O)[O-])cc1

B1: EstDZ2 (uncultured Acetothermia bacterium) (protein)
chain: APPFSFQVYTDVVYYDGPDAHPTKHRLDLFVPDGLQDAPVLIFVHGGGWTSGDKNLYAFIGQAFAAQGFATAVINYRLSPQVQHPAHIEDVARAFSWVYKNIARYGGNPEKIFVTGHSAGGHLTALLALDEKYLQAHGLTLAAIKGAIPISGVYDVTPVLALYRTVFGADPDQRWDASPLAHVGPNKPPFLILYAQFDFPGLGLQAQQLFAELRTHNNEATLTEIPNRDHVTIVATIGASNDPTTEEI
notes: predicted signal peptide (aa 2-21) replaced by N-terminal hexa-histidine tag, kept; E. coli BL21(DE3); Ni-NTA; monomer, ~29 kDa; HGGG and GHSAG motifs; primer encodes APPFSF after His tag
B1 was tested, and the Km (purified protein [1]) was 320 ± 90 µM, the kcat/Km (purified protein [1]) was 1.44e+07 M⁻¹ s⁻¹ and the Km (purified protein [2]) was 200 ± 20 µM. The kcat/Km (purified protein [2]) was 1.04e+07 M⁻¹ s⁻¹, the Km (purified protein [3]) was 120 ± 10 µM and the kcat/Km (purified protein [3]) was 7.55e+06 M⁻¹ s⁻¹. The Km (purified protein [4]) was 670 ± 150 µM and the kcat/Km (purified protein [4]) was 1.76e+06 M⁻¹ s⁻¹.
